Experimental findings from article PMC5336696, “Structural basis for potency differences between GDF8 and GDF11” (BMC Biology, 2017) are described below.

Experiment [1] deals with T1, mature growth/differentiation factor 11 (GDF11) (human) (UniProt O95390).
T1 sequence: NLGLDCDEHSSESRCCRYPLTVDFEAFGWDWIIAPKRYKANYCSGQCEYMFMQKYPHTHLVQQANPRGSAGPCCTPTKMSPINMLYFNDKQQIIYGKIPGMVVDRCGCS

Experiment [2] deals with T2, mature growth/differentiation factor 8 (GDF8) (human) (UniProt O14793).
T2 sequence: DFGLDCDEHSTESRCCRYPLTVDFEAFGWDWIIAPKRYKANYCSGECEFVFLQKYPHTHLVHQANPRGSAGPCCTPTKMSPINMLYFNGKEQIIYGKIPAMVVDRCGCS

In experiment [3] the target is T3, mature growth/differentiation factor 11 (GDF11) (human, UniProt O95390 299-407).
T3 sequence (looked up): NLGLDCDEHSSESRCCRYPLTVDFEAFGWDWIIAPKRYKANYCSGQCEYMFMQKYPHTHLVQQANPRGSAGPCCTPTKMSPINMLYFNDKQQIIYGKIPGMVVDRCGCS
Briefly: cell-based or functional assay.

In experiment [4] the target is T4, mature growth/differentiation factor 8 (GDF8) (human, UniProt O14793 267-375).
T4 sequence (looked up): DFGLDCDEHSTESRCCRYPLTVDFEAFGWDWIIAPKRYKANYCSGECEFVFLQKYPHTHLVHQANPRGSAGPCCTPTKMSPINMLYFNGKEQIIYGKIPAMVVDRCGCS
Briefly: cell-based or functional assay.

Experiment [5] addresses T3, mature growth/differentiation factor 11 …. Briefly: cell-based or functional assay. The source holds these as a separate data set.
Experiment [6] has the same target. Briefly: cell-based or functional assay. This is another data set of the same source.
Experiment [7] deals with T4, mature growth/differentiation factor 8 …. Briefly: cell-based or functional assay. This is another data set of the same source.

B1: growth/differentiation factor-associated serum protein 1 (GASP1) (natural protein)
chain: LPPIRYSHAGICPNDMNPNLWVDAQSTCRRECETDQECETYEKCCPNVCGTKSCVAARYMDVKGKKGPVGMPKEATCDHFMCLQQGSECDIWDGQPVCKCKDRCEKEPSFTCASDGLTYYNRCYMDAEACSKGITLAVVTCRYHFTWPNTSPPPPETTMHPTTASPETPELDMAAPALLNNPVHQSVTMGETVSFLCDVVGRPRPEITWEKQLEDRENVVMRPNHVRGNVVVTNIAQLVIYNAQLQDAGIYTCTARNVAGVLRADFPLSVVRGHQAAATSESSPNGTAFPAAECLKPPDSEDCGEEQTRWHFDAQANNCLTFTFGHCHRNLNHFETYEACMLACMSGPLAACSLPALQGPCKAYAPRWAYNSQTGQCQSFVYGGCEGNGNNFESREACEESCPFPRGNQRCRACKPRQKLVTSFCRSDFVILGRVSELTEEPDSGRALVTVDEVLKDEKMGLKFLGQEPLEVTLLHVDWACPCPNVTVSEMPLIIMGEVDGGMAMLRPDSFVGASSARRVRKLREVMHKKTCDVLKEFLGLH
B1 yielded an IC50 of inhibition of 0.62 nM GDF11, (CAGA)12 luciferase reporter in HEK293 cells in experiment [1] of 0.3 nM. Moreover, the IC50 of inhibition of 0.62 nM GDF8, (CAGA)12 luciferase reporter in HEK293 cells in experiment [2] came to 0.2 nM.

B2: follistatin 288 (FS288) (natural protein, UniProt P19883-2 30-317, looked up)
chain: GNCWLRQAKNGRCQVLYKTELSKEECCSTGRLSTSWTEEDVNDNTLFKWMIFNGGAPNCIPCKETCENVDCGPGKKCRMNKKNKPRCVCAPDCSNITWKGPVCGLDGKTYRNECALLKARCKEQPELEVQYQGRCKKTCRDVFCPGSSTCVVDQTNNAYCVTCNRICPEPASSEQYLCGNDGVTYSSACHLRKATCLLGRSIGLAYEGKCIKAKSCEDIQCTGGKKCLWDFKVGRGRCSLCDELCPDSKSDEPVCASDNATYASECAMKEAACSSGVLLEVKHSGSCN
Consider B2, for which the “IC50 of inhibition of 0.62 nM GDF11, (CAGA)12 luciferase reporter in HEK293 cells” value in experiment [3] was 0.3 nM. Moreover, the “IC50 of inhibition of 0.62 nM GDF8, (CAGA)12 luciferase reporter in HEK293 cells” value in experiment [4] is 0.2 nM.

B3: GASP2 (natural protein)
chain: AGLLPGLGSHPGVCPNQLSPNLWVDAQSTCERECSRDQDCAAAEKCCINVCGLHSCVAARFPGSPAAPTTAASCEGFVCPQQGSDCDIWDGQPVCRCRDRCEKEPSFTCASDGLTYYNRCYMDAEACLRGLHLHIVPCKHVLSWPPSSPGPPETTARPTPGAAPVPPALYSSPSPQAVQVGGTASLHCDVSGRPPPAVTWEKQSHQRENLIMRPDQMYGNVVVTSIGQLVLYNARPEDAGLYTCTARNAAGLLRADFPLSVVQREPARDAAPSIPAPAECLPDVQACTGPTSPHLVLWHYDPQRGGCMTFPARGCDGAARGFETYEACQQACARGPGDACVLPAVQGPCRGWEPRWAYSPLLQQCHPFVYGGCEGNGNNFHSRESCEDACPVPRTPPCRACRLRSKLALSLCRSDFAIVGRLTEVLEEPEAAGGIARVALEDVLKDDKMGLKFLGTKYLEVTLSGMDWACPCPNMTAGDGPLVIMGEVRDGVAVLDAGSYVRAASEKRVKKILELLEKQACELLNRFQD
B3 showed an IC50 of inhibition of 0.62 nM GDF11, (CAGA)12 luciferase reporter in HEK293 cells in experiment [1] of 18.3 nM. The IC50 of inhibition of 0.62 nM GDF8, (CAGA)12 luciferase reporter in HEK293 cells in experiment [2] came to 4.1 nM.

B4: ActRIIB extracellular domain (ActRIIB-ECD) (receptor, UniProt P38445 19-137, looked up)
chain: SGRGEAETRECIYYNANWELERTNQSGLERCEGEQDKRLHCYASWRNSSGTIELVKKGCWLDDFNCYDRQECVATEENPQVYFCCCEGNFCNERFTHLPEPGGPEVTYEPPPTAPTLLT
Turning to B4, in experiment [5], the “IC50 of inhibition of 0.62 nM GDF11 by the soluble receptor, (CAGA)12 luciferase reporter in HEK293 cells (value of the text)” value is 14 nM. In addition, the “IC50 of inhibition of 0.62 nM GDF11 by the soluble receptor, (CAGA)12 luciferase reporter in HEK293 cells” value in experiment [6] came to 13 nM. In experiment [7], the “IC50 of inhibition of 0.62 nM GDF8 by the soluble receptor, (CAGA)12 luciferase reporter in HEK293 cells” value was determined as 12.4 nM.

B5: Fc-ActRIIB-ECD (Fc fusion, UniProt Q13705 19-137, looked up)
chain: SGRGEAETRECIYYNANWELERTNQSGLERCEGEQDKRLHCYASWRNSSGTIELVKKGCWLDDFNCYDRQECVATEENPQVYFCCCEGNFCNERFTHLPEAGGPEVTYEPPPTAPTLLT
B5: the “IC50 of inhibition of 0.62 nM GDF11 by the soluble receptor, (CAGA)12 luciferase reporter in HEK293 cells” value in experiment [6] turned out to be 10.3 nM. The “IC50 of inhibition of 0.62 nM GDF8 by the soluble receptor, (CAGA)12 luciferase reporter in HEK293 cells” value in experiment [7] was determined as 3 nM.

B6: follistatin-like 3 (FSTL3) (natural protein)
chain: MGSGNPAPGGVCWLQQGQEATCSLVLQTDVTRAECCASGNIDTAWSNLTHPGNKINLLGFLGLVHCLPCKDSCDGVECGPGKACRMLGGRPRCECAPDCSGLPARLQVCGSDGATYRDECELRAARCRGHPDLSVMYRGRCRKSCEHVVCPRPQSCVVDQTGSAHCVVCRAAPCPVPSSPGQELCGNNNVTYISSCHMRQATCFLGRSIGVRHAGSCAGTPEEPPGGESAEEEENFV
B6 displayed an IC50 of inhibition of 0.62 nM GDF11, (CAGA)12 luciferase reporter in HEK293 cells in experiment [1] of 4 nM. The IC50 of inhibition of 0.62 nM GDF8, (CAGA)12 luciferase reporter in HEK293 cells in experiment [2] stood at 1.2 nM.
